Values quoted from earlier work as cited in paper PMC4860049.

Target: CHMP5 (Homo sapiens) (UniProt Q9NZZ3)
UniProt Q9NZZ3, sequence (Q9NZZ3 whole entry): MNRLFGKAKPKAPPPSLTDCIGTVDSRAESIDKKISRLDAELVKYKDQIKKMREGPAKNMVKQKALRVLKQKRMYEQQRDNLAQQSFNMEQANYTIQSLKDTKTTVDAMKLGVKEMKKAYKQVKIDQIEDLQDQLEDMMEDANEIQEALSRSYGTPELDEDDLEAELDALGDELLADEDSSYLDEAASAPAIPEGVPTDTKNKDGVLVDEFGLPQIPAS

- Kd: 3 nM
Substance: LIP5 MIT2 (from UniProt Q9NP79)
